According to publication PMC6168700 (2018):

What was measured:
[1] = biological target: T1, Full-length Has1, His-tagged (Saccharomyces cerevisiae (strain ATCC …, UniProt Q03532)); assay: Ni-NTA pull-down and co-expression, SDS-PAGE
[2] = biological target: T1, Full-length Has1, His-tagged; assay: Ni-NTA pull-down, Coomassie SDS-PAGE
[3] = biological target: T2, Full-length Rok1, His-tagged (Saccharomyces cerevisiae (strain ATCC …, UniProt P45818)); assay: Ni-NTA pull-down, Coomassie SDS-PAGE; 2 mM ATP present
T2 chain: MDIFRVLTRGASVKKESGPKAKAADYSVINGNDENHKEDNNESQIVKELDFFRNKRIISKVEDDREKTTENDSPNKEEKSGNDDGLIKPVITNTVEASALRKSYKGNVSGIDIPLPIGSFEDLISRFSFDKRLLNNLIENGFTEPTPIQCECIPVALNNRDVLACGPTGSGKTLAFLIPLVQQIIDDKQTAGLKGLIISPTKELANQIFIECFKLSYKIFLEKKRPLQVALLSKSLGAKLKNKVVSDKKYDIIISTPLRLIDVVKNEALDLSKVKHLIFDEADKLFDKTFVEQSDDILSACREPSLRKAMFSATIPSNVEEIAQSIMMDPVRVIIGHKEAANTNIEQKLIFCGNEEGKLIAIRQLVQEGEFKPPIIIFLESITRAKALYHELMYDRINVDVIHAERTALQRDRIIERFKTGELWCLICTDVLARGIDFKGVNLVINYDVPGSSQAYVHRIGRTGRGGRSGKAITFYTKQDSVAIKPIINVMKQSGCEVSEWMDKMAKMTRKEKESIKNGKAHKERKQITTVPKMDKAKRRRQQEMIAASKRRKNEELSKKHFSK

T1 sequence (Q03532 whole entry): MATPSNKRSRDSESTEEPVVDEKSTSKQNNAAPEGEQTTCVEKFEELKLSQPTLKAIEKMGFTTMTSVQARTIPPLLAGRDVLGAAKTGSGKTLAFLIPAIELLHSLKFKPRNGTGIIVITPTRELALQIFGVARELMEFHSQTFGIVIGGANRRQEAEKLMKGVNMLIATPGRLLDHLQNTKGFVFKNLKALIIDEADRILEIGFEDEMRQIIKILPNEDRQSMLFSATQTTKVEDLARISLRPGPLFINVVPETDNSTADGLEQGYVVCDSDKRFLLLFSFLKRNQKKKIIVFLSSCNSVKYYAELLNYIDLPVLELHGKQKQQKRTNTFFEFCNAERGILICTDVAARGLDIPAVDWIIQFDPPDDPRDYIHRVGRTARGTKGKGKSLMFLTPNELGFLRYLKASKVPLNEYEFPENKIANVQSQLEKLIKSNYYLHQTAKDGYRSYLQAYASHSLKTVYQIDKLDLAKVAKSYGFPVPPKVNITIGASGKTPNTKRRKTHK

B1: Rrp5 (1400–1729), the TPR region alone (protein)
chain: GLSLSAGFDWTASILDQAQEEEESDQDQEDFTENKKHKHKRRKENVVQDKTIDINTRAPESVADFERLLIGNPNSSVVWMNYMAFQLQLSEIEKARELAERALKTINFREEAEKLNIWIAMLNLENTFGTEETLEEVFSRACQYMDSYTIHTKLLGIYEISEKFDKAAELFKATAKKFGGEKVSIWVSWGDFLISHNEEQEARTILGNALKALPKRNHIEVVRKFAQLEFAKGDPERGRSLFEGLVADAPKRIDLWNVYVDQEVKAKDKKKVEDLFERIITKKITRKQAKFFFNKWLQFEESEGDEKTIEYVKAKATEYVASHESQKADE
- binding result [1]: no binding

B2: Rrp5 (1083–1343), the last 3 S1 domains only (protein)
chain: STIKVGDELPGRVLKIAEKYVLLDLGNKVTGISFITDALNDFSLTLKEAFEDKINNVIPTTVLSVDEQNKKIELSLRPATAKTRSIKSHEDLKQGEIVDGIVKNVNDKGIFVYLSRKVEAFVPVSKLSDSYLKEWKKFYKPMQYVLGKVVTCDEDSRISLTLRESEINGDLKVLKTYSDIKAGDVFEGTIKSVTDFGVFVKLDNTVNVTGLAHITEIADKKPEDLSALFGVGDRVKAIVLKTNPEKKQISLSLKASHFSKE
- binding result [2]: no binding
- binding result [3]: no binding
